Laboratory results from patent publication US20240352438A1, “MEANS AND METHODS FOR DETOXIFYING OCHRATOXIN A” (DSM Austria GmbH, priority 2021, published 2024).
Residue numbers refer to the chain shown, from its start.

B1: 180 (protein)
chain: MTTRTRILTAFLSLLAANACAADAAPAAPHTVVLRAARMFDGASGKLVDHPQLTIVGNKIVRIAQGDKAEVPAGAEVVDLGDATLLPGFIDAHVHLSGQSSDNWYGDFFDNMMRFPAEQALYGAYYARITLEAGFTSVRDVGSTDWVALGLRNAIDAGKVPGPRMLVSNEAVGSTGGHADQDPIPPHKLPLAGPLQGVCNGPEECRAAVRYQIKYGANVIKFMPSGGVLSLSDPVDAPELSQDEMNAVIGESHAWGRKVAAHAHGDKAAKMAVAAGVDSIEHGSFIEDDTLRAMKAKNVYLVPTISAIAHVEEKIGTFPPVIAEKGRAAAAHLRQTFRHAVQIGVPIALGTDAGVGAHGSNAREFRYMVENGLTPAQALLAGTANAARLLGTFDRVGTLEAGKLADVVAVPGNPIADITVTERPLFVMKDGVVVRRDAVR
modifications: exemplary polypeptide
B2: 181 (protein)
chain: B1 chain with E170F
modifications: exemplary polypeptide
B3: 182 (protein)
chain: B1 chain with E170R
modifications: exemplary polypeptide
B4: 183 (protein)
chain: B1 chain with E170Y, A330L
modifications: exemplary polypeptide
B5: 184 (protein)
chain: B1 chain with E170Y, A330M
modifications: exemplary polypeptide
B6: 186 (protein)
chain: B1 chain with E170Y, L333I
modifications: exemplary polypeptide
B7: 187 (protein)
chain: B1 chain with E170Y, L333M
modifications: exemplary polypeptide
B8: 188 (protein)
chain: B1 chain with E170Y, L333V
modifications: exemplary polypeptide
B9: 189 (protein)
chain: B1 chain with E170Y, G354L
modifications: exemplary polypeptide
B10: 190 (protein)
chain: B1 chain with E170Y, G354S
modifications: exemplary polypeptide
B11: 192 (protein)
chain: B1 chain with E170Y, G354V
modifications: exemplary polypeptide
B12: 193 (protein)
chain: B1 chain with E170Y, G356A
modifications: exemplary polypeptide
B13: 194 (protein)
chain: B1 chain with E170Y, G356F
modifications: exemplary polypeptide
B14: 195 (protein)
chain: B1 chain with E170Y, G356P
modifications: exemplary polypeptide
B15: 196 (protein)
chain: B1 chain with E170Y, G356V
modifications: exemplary polypeptide
B16: 197 (protein)
chain: B1 chain with E170Y, G356Y
modifications: exemplary polypeptide
B17: 198 (protein)
chain: B1 chain with W104F, E170Y
modifications: exemplary polypeptide
B18: 200 (protein)
chain: B1 chain with W104P, E170Y
modifications: exemplary polypeptide
B19: 201 (protein)
chain: B1 chain with W104Y, E170Y
modifications: exemplary polypeptide
B20: 202 (protein)
chain: B1 chain with E170Y, I322L
modifications: exemplary polypeptide
B21: 203 (protein)
chain: B1 chain with E170Y, I322M
modifications: exemplary polypeptide
B22: 206 (protein)
chain: B1 chain with H30E, E170Y
modifications: exemplary polypeptide
B23: 207 (protein)
chain: B1 chain with H30K, E170Y
modifications: exemplary polypeptide
B24: 208 (protein)
chain: B1 chain with H30P, E170Y
modifications: exemplary polypeptide
B25: 209 (protein)
chain: B1 chain with H30R, E170Y
modifications: exemplary polypeptide

Test: OTA detoxification activity assay (specific activity, fluorescence reduction ex/em 390/450 nm)
Type: biochemical
Settings: pH 6.0; SEQ ID NO: 1 = 100%
Method in brief: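 Recombinant enzyme preparation with 200 ng/mL OTA in 100 mM sodium phosphate, at pH 6.0 and pH 7.5, 37° C. Degradation followed as the fall in fluorescence at ex/em 390/450 nm. Specific activity taken from the initial linear slope; one unit degrades 1 μmol OTA per min at a starting OTA of […].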

Row | Molecule | Specific OTA detoxification activities in % compared to the enzyme of SEQ ID NO: 1, pH 6.0
1 | B1 | 91%
2 | B2 | 138%
3 | B3 | 98%
4 | B4 | 58%
5 | B5 | 103%
6 | B6 | 142%
7 | B7 | 51%
8 | B8 | 84%
9 | B9 | 82%
10 | B10 | 122%
11 | B11 | 69%
12 | B12 | 81%
13 | B13 | 78%
14 | B14 | 148%
15 | B15 | 48%
16 | B16 | 59%
17 | B17 | 111%
18 | B18 | 18%
19 | B19 | 134%
20 | B20 | 59%
21 | B21 | 100%
22 | B22 | 168%
23 | B23 | 87%
24 | B24 | 135%
25 | B25 | 143%

Same assay, conditions: pH 7.5; SEQ ID NO: 1 = 100%

Row | Molecule | Specific OTA detoxification activities in % compared to the enzyme of SEQ ID NO: 1, pH 7.5
26 | B1 | 83%
27 | B2 | 112%
28 | B3 | 91%
29 | B4 | 55%
30 | B5 | 76%
31 | B6 | 115%
32 | B7 | 58%
33 | B8 | 52%
34 | B9 | 22%
35 | B10 | 85%
36 | B11 | 30%
37 | B12 | 85%
38 | B13 | 52%
39 | B14 | 100%
40 | B15 | 58%
41 | B16 | 29%
42 | B17 | 84%
43 | B18 | 25%
44 | B19 | 121%
45 | B20 | 47%
46 | B21 | 70%
47 | B22 | 112%
48 | B23 | 72%
49 | B24 | 108%
50 | B25 | 88%

Test: Enzymatic activity comparison: activity remaining after 65° C. for 10 min at pH 6.0, relative to SEQ ID NO: 1
Type: physicochemical
Settings: not given
Protocol: To compare the temperature behavior and thermostability of selected enzymes to one another, enzyme was incubated at 65° C. for 10 min at pH 6.0. The enzymatic activity remaining after incubation was compared to the remaining activity of the enzyme of SEQ ID NO: 1 after incubation, the latter being set to 100%, see Table 16.

Row | Molecule | Enzymatic activity remaining after incubation, compared to SEQ ID NO: 1 (set to 100%)
51 | B1 | 28%
52 | B2 | 47%
53 | B3 | 38%
54 | B4 | 75%
55 | B5 | 46%
56 | B6 | 42%
57 | B7 | 36%
58 | B8 | 45%
59 | B9 | 19%
60 | B10 | 15%
61 | B11 | 41%
62 | B12 | 42%
63 | B13 | 45%
64 | B14 | 38%
65 | B15 | 57%
66 | B16 | 29%
67 | B17 | 55%
68 | B18 | 88%
69 | B19 | 54%
70 | B20 | 25%
71 | B21 | 10%
72 | B22 | 42%
73 | B23 | 37%
74 | B24 | 35%
75 | B25 | 31%
